Measurements published in article PMC6755802 (The Journal of Biological Chemistry, 2019).

T1: Super-2/IL-2Rβ binary complex (human, UniProt P60568;P14784)
T1 construct: human IL-2Rβ ectodomain, amino acids 1-214; also called stabilized Super-2/IL-2Rβ binary complex; source: baculovirus expression system, purified (nickel chromatography, SEC)
T1 chain 1: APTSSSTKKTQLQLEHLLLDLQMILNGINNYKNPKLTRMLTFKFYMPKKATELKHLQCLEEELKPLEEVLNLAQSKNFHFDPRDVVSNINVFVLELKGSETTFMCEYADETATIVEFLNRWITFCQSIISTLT
T1 chain 2: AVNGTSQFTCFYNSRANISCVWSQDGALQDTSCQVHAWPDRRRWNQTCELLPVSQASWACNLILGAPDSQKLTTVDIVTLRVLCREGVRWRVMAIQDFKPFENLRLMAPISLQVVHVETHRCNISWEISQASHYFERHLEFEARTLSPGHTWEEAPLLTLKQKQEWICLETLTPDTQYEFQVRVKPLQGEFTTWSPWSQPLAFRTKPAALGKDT


Assays:
[1] = target: T2, IL-2/IL-2Rβ binary complex (Homo sapiens, UniProt P60568;P14784); assay: flow cytometry on cells; scFv displayed on yeast; 1 μM of the indicated biotinylated complex components in PBE buffer, 2 h at room temperature; detection with 50 nM SA-647; conditions: one partner purified
T2 construct: human IL-2, amino acids 1-133; human IL-2Rβ ectodomain, amino acids 1-214; also called IL-2 BC; IL-2 binary complex; source: baculovirus expression system, purified (nickel chromatography, SEC)

[2] = target: T3, IL-2, biotinylated (for staining of yeast) (Homo sapiens, UniProt P60568, biotin (site not stated)); assay: as above; conditions: one partner purified
T3 construct: human IL-2, amino acids 1-133; also called interleukin-2; the cytokine; source: baculovirus expression system, purified (nickel chromatography, SEC)

[3] = target: T4, IL-2Rβ ectodomain, biotinylated (for staining of yeast) (Homo sapiens, UniProt P14784, biotin (site not stated)); assay: as above; conditions: one partner purified
T4 construct: human IL-2Rβ ectodomain, amino acids 1-214; also called the receptor; source: baculovirus expression system, purified (nickel chromatography, SEC)

[4] = target: T1, Super-2/IL-2Rβ binary complex; assay: SPR; biotinylated scFv immobilised on Biacore SA chip at low density; analytes flowed 60 s; complexes pre-incubated 30 min at room temperature; 25 °C; HBS-P+ with 0.2% BSA; KD from equilibrium titration, 1:1 model; in Fig. 1D all proteins at 60 μM; conditions: both partners purified

Row | Binder | binding result [1] | binding result [2] | binding result [3] | Kd [4] [nM]
1 | affinity-matured IL-2 binary complex stapler scFv, yeast-displayed (scFv, V domains shown, as the scFv of m6 with changes in the VH and VL CDR3 regions; also called amIL-2B stapler; amIL-2BC stapler; source: site-directed mutagenic library of IL-2B stapler) VH: QVQLQQSGPGLVKPSQTLSLTCAISGDSVSSNSATWNWIRQSPSRGLEWLGRTYYRSKWYDDYAVSVKSRITINPDTSKNQFSLQLNSVTPEDTAVYYCARATYGTYDYWGQGTLVTVSS VL: NFMLTQPHSASESPGKTVTISCTGSRGSIASNYVQWYQQRPGSAPTTVIYEDNQRPSGVPDRFSGSIDSSSNSASLTISGLKTEDEADYYCQSYDQNYHAVFGGGTQLTVL | binds | no binding (tested: 1 μM) | no binding (tested: 1 μM) | –
2 | affinity-matured IL-2 binary complex stapler scFv, recombinantly expressed (scFv, V domains shown, VH of amIL-2B stapler; as the VH of m8 with changes in CDR3; 15-amino acid (Gly4Ser)3 linker; VL of amIL-2B stapler; as the VL of m8 with changes in CDR3; Biotinylated for immobilisation in SPR; also called amIL-2B stapler; amIL-2BC stapler; source: baculovirus system (pAcGP67A), purified (nickel chromatography, SEC)) VH: QVQLQQSGPGLVKPSQTLSLTCAISGDSVSSNSATWNWIRQSPSRGLEWLGRTYYRSKWYDDYAVSVKSRITINPDTSKNQFSLQLNSVTPEDTAVYYCARATYGTYDYWGQGTLVTVSS VL: NFMLTQPHSASESPGKTVTISCTGSRGSIASNYVQWYQQRPGSAPTTVIYEDNQRPSGVPDRFSGSIDSSSNSASLTISGLKTEDEADYYCQSYDQNYHAVFGGGTQLTVL | – | – | – | 15
